{"source": "paper doi:10.1101/2020.12.29.424711", "about": "(bioRxiv, 2020)", "key": {"[1]": {"target": "SARS-CoV-2 receptor binding domain (RBD), as crystallised (SARS-CoV-2, UniProt P0DTC2)", "assay": "crystal structure"}, "[2]": {"target": "SARS-CoV-2 RBD, as used in Octet epitope binning and as SPR analyte (SARS-CoV-2, UniProt P0DTC2)", "assay": "BLI"}}, "data": [{"binder": "ION_360 Fab (Fab, V domains shown) VH: EVQLVQSGGGLVKPGGSLRLSCAASGITVSSNYMSWVRQAPGKGLEWVSVIYSGGSTYYADSVKGRFTISRDNSKNTLYLQMNSLRAEDTAVYYCARGEGGSIVGVTSDYWGQGTLVTVSS VL: DIQMTQSPSSLSASVGDRVTITCRASQSISRYLNWYQQKPGKAPKLLIYAASSLQSGVPSRFSGSGSETEFTLTISSLHPDDFATYYCQQSYSTLPYTFGQGTKVEIK", "values": [{"measurement": "binding result", "setting": "[1]", "result": "binds"}]}, {"binder": "ION_300 Fab (Fab, V domains shown) VH: QVQLVQSGAEVKKPGESLKISCKGSGYSFTSYWIGWVRQMPGKGLEWMGIIYPGDSDTRYSPSFQGQVTISADKSISTAYLQWSSLKASDTAMYYCARHPSPYYYGSGSYSGGFDYWGQGTLVTVSS VL: DIVMTQSPGTLSLSPGERATLSCRASQSVSSSYLAWYQQKPGQAPRLLIYGASTRATGIPARFSGSGSGTEFTLTISSLQSEDFAVYYCQQYDNWPLMHTFGQGTKLEIK", "values": [{"measurement": "binding result", "setting": "[1]", "result": "binds"}]}, {"binder": "ION_300 IgG1 (antibody, V domains shown) VH: QVQLVQSGAEVKKPGESLKISCKGSGYSFTSYWIGWVRQMPGKGLEWMGIIYPGDSDTRYSPSFQGQVTISADKSISTAYLQWSSLKASDTAMYYCARHPSPYYYGSGSYSGGFDYWGQGTLVTVSS VL: DIVMTQSPGTLSLSPGERATLSCRASQSVSSSYLAWYQQKPGQAPRLLIYGASTRATGIPARFSGSGSGTEFTLTISSLQSEDFAVYYCQQYDNWPLMHTFGQGTKLEIK", "values": [{"measurement": "binding result", "setting": "[2]", "result": "binds"}]}]}
